Results on one molecule are retold here after publication PMC9636267 (Communications Biology, 2022).

This experiment deals with T1, HCoV-229E S ectodomain (17–1115 aa), 229E S trimer (human coronavirus 229E, UniProt P15423 17-1115).
T1 sequence (looked up): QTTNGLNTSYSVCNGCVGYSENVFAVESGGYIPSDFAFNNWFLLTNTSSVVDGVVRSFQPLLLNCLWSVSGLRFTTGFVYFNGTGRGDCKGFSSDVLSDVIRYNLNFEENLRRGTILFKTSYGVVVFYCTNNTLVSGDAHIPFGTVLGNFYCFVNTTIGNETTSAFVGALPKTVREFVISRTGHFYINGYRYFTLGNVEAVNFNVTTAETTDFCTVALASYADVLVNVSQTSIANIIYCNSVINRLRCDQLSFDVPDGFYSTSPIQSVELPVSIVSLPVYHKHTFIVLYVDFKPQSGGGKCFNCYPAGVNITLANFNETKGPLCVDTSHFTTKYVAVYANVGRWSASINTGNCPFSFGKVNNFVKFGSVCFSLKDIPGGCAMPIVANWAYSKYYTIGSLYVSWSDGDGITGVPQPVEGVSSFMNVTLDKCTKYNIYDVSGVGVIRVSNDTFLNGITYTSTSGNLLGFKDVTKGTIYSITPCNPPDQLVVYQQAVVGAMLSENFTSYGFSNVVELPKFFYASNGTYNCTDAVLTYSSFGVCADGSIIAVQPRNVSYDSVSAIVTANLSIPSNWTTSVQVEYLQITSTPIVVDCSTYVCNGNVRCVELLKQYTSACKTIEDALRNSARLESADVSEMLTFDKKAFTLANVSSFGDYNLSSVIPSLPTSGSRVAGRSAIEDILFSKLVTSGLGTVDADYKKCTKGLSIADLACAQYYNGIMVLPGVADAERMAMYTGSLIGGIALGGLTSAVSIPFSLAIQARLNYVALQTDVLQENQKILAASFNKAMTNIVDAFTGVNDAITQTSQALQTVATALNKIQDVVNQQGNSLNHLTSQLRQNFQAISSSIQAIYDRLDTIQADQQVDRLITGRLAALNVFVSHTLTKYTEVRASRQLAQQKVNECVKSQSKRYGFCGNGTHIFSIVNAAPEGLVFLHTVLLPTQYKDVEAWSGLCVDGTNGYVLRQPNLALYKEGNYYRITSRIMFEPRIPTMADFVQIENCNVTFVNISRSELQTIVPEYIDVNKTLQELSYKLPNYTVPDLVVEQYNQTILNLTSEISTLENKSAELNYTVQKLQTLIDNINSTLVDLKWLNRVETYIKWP
Kind of experiment: SPR. The settings on record: both partners purified.

B1: human aminopeptidase N (hAPN), soluble ectodomain (66–967 aa) (receptor, UniProt P15144 66-967, looked up)
chain: DQSKAWNRYRLPNTLKPDSYRVTLRPYLTPNDRGLYVFKGSSTVRFTCKEATDVIIIHSKKLNYTLSQGHRVVLRGVGGSQPPDIDKTELVEPTEYLVVHLKGSLVKDSQYEMDSEFEGELADDLAGFYRSEYMEGNVRKVVATTQMQAADARKSFPCFDEPAMKAEFNITLIHPKDLTALSNMLPKGPSTPLPEDPNWNVTEFHTTPKMSTYLLAFIVSEFDYVEKQASNGVLIRIWARPSAIAAGHGDYALNVTGPILNFFAGHYDTPYPLPKSDQIGLPDFNAGAMENWGLVTYRENSLLFDPLSSSSSNKERVVTVIAHELAHQWFGNLVTIEWWNDLWLNEGFASYVEYLGADYAEPTWNLKDLMVLNDVYRVMAVDALASSHPLSTPASEINTPAQISELFDAISYSKGASVLRMLSSFLSEDVFKQGLASYLHTFAYQNTIYLNLWDHLQEAVNNRSIQLPTTVRDIMNRWTLQMGFPVITVDTSTGTLSQEHFLLDPDSNVTRPSEFNYVWIVPITSIRDGRQQQDYWLIDVRAQNDLFSTSGNEWVLLNLNVTGYYRVNYDEENWRKIQTQLQRDHSAIPVINRAQIINDAFNLASAHKVPVTLALNNTLFLIEERQYMPWEAALSSLSYFKLMFDRSEVYGPMKNYLKKQVTPLFIHFRNNTNNWREIPENLMDQYSEVNAISTACSNGVPECEEMVSGLFKQWMENPNNNPIHPNLRSTVYCNAIAQGGEEEWDFAWEQFRNATLVNEADKLRAALACSKELWILNRYLSYTLNPDLIRKQDATSTIISITNNVIGQGLVWDFVQSNWKKLFNDYGGGSFSFSNLIQAVTRRFSTEYELQQLEQFKKDNEETGFGSGTRALEQALEKTKANIKWVKENKEVVLQWFTENSK
notes: also called recombinant hAPN protein
With B1, the binding result is recorded as “binds”.
